Test results from patent US20130309248A1.

Legend:
[1] = molecular target: full-length recombinant H3 HA (A/Wisconsin/67/2005) on PER.C6 cells (influenza A virus (H3N2)); experiment: FACS, IgG 5 µg/ml, HA-expressing PER.C6 cells; untransfected MFI 21
[2] = molecular target: full-length recombinant H7 HA (A/Netherlands/219/2003) on PER.C6 cells (influenza A virus (H7N7)); experiment: as above
[3] = molecular target: full-length recombinant H1 HA (A/New Caledonia/20/1999) on PER.C6 cells (influenza A virus (H1N1)); experiment: as above
[4] = molecular target: HA of virus A/Hiroshima/52/2005 (H3N2) (influenza A virus (H3N2)); experiment: cell-based or functional assay
[5] = molecular target: HA of virus A/Brisbane/59/2007 (H1N1) (influenza A virus (H1N1)); experiment: cell-based or functional assay
[6] = molecular target: HA of virus A/Panama/2000/1999 (H3N2) (influenza A virus (H3N2)); experiment: cell-based or functional assay
[7] = molecular target: HA of virus A/Chick/Germany/N/49 (H10) (influenza A virus (H10)); experiment: cell-based or functional assay
[8] = molecular target: HA of virus A/Wisconsin/67/2005 (H3N2) (influenza A virus (H3N2)); experiment: cell-based or functional assay
[9] = molecular target: HA of virus A/Johannesburg/33/94 (H3N2) (influenza A virus (H3N2)); experiment: cell-based or functional assay
[10] = molecular target: HA of virus A/Mallard/Netherlands/12/2000 (H7N3) (influenza A virus (H7N3)); experiment: cell-based or functional assay
[11] = molecular target: HA of virus A/New Caledonia/20/1999 (H1N1) (influenza A virus (H1N1)); experiment: cell-based or functional assay
[12] = molecular target: HA of virus A/Solomon Islands/IVR-145 (H1N1) (influenza A virus (H1N1)); experiment: cell-based or functional assay

B1: CR8055 (antibody, V domains shown)
VH: EIVLTQSPDFQSVAPKEKVTITCRASRSIGSDLHWFQQRPDQSPKLLIKFASQSMSGVPSRFSGSGSGRDFTLTISSLEAEDAATYYCHQSSSLPLT
VL: EVQLVESGGGLVQPGGSLRLSCAASGFTDSVIFMSWVRQAPGKGLECVSIIYIDDSTYYADSVKGRFTISRHNSMGTVFLEMNSLRPDDTAVYYCATESGDFGDQTGPYHYYAMDV
For B1, the MFI [1] was 433 MFI, the MFI [2] was 26 MFI and the MFI [3] was 31 MFI. It also gave a Neutralization titer SK50 [4] of 1.15 µg/mL, a Neutralization titer SK50 [5] of over 40 µg/mL and a Neutralization titer SK50 [6] of over 40 µg/mL. For the same binder, the Neutralization titer SK50 [7] was over 40 µg/mL, the Neutralization titer SK50 [8] was 1.07 µg/mL and the Neutralization titer SK50 [9] was 3.38 µg/mL. The Neutralization titer SK50 [10] was over 40 µg/mL, the Neutralization titer SK50 [11] was over 40 µg/mL and the Neutralization titer SK50 [12] was over 40 µg/mL.
